Results from patent publication US20220332846A1 (Innovent, published 2022).

Molecular target: T1, PCSK-9 in human serum samples (human, UniProt Q8NBP7 31-692, limits assumed)
T1 construct: Endogenous PCSK-9 in clinical serum of human subjects, detected with a goat anti-human PCSK-9 polyclonal antibody; also called proprotein convertase subtilisin/kexin type 9; serum free PCSK-9
Test: ELISA, ADI-10087 coated on a microplate, serum PCSK-9 captured, detected with goat anti-human PCSK-9 polyclonal antibody
Procedure: A corresponding TMB substrate of HRP enzyme was then added, the color intensity of the TMB substrate was proportional to the content of PCSK-9, and the concentration of PCSK-9 in clinical serum could be detected by OD values at 450 nm or 620 nm using a microplate reader.

T1 sequence (Q8NBP7 31-692 limits assumed): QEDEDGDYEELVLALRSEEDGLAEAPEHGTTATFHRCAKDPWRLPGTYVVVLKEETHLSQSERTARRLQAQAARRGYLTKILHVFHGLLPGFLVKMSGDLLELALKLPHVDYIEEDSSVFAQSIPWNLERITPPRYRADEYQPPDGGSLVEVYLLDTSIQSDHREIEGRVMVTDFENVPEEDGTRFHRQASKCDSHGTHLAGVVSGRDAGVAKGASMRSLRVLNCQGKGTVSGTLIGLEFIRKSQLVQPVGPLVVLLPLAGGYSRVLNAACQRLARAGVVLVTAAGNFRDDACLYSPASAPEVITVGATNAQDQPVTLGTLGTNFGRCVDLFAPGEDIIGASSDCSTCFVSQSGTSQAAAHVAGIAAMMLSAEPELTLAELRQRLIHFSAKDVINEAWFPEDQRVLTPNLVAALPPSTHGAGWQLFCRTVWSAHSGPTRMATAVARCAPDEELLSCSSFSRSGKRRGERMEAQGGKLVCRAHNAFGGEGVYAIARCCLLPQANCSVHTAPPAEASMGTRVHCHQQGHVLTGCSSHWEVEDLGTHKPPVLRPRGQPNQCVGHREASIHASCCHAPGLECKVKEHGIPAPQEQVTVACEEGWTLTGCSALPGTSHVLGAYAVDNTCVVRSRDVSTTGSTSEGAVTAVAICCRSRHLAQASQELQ

binding result: binds
B1: ADI-10087 (antibody, V domains shown)
VH: QLQLQESGPGLVKPSETLSLTCTVSGGSISSASYYWSWIRQPPGKGLEWIGSINYRGSTYYNPSLKSRVTISVDTSKNQFSLKLSSVTAADTAVYYCARENSGVVPAAGPNWFGPWGQGTLVTVSS
VL: EIVLTQSPATLSLSPGERATLSCRASQSVSSYLAWYQQKPGQAPRLLIYDASNRATGIPARFSGSGSGTDFTLTISSLEPEDFAVYYCQQRRNWFTFGGGTKVEIKR
modifications: In Example 10 the antibody carries a ruthenium label, and in Example 9 biotin and ruthenium labels. The labelling sites are not stated and the letters do not carry them.
notes: The antibody was obtained from PCT/CN2017/118050; also called anti-PCSK9 antibody; test drug
